± gives the uncertainty stated by the source.
Experiment: protein stability index of a GFP-peptide fusion (yeast GPS) (PSI 1-4); higher = more stable; sorted into four equal gates, so the index is relative within each strain
Summary of the method: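 Peptides tiling yeast proteins in 17-residue segments were fused downstream of GFP, with Cherry expressed from the same plasmid. As a pooled library in yeast, mid-log cultures grown in leucine-free medium were sorted into four equal gates by GFP/Cherry fluorescence ratio. Gate plasmids were PCR-amplified and Illumina-sequenced, and barcodes linked reads to strains. Each peptide received a protein stability index equal to the sum of each gate's read frequency times its gate number.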

Sequence: SGYGKRKGTREARLPSQ [RPL19A]
- protein stability index (pdr5∆): 3.29 ± 0.28
- protein stability index (ubr1∆): 3.49 ± 0.26

Sequence: SHDASRSLASFEQTAFS [SIR4]
- protein stability index (doa10∆): 2.86 ± 0.065
- protein stability index (pdr5∆): 2.67 ± 0.049
- protein stability index (san1∆): 2.81 ± 0.053
- protein stability index (ubr1∆): 2.67 ± 0.067

Sequence: SHLWEIDIPLDEQAFYN [RPC37]
- protein stability index (pdr5∆): 2.45 ± 0.27
- protein stability index (san1∆): 2.98 ± 0.24

Sequence: SIDCLLILILVISFGQP [SWI1]
- protein stability index (doa10∆): 1.85 ± 0.043
- protein stability index (pdr5∆): 1.64 ± 0.034
- protein stability index (san1∆): 1.52 ± 0.071
- protein stability index (ubr1∆): 1.59 ± 0.029

Sequence: SIDPPGCVDIDDALHAK [DIS3]
- protein stability index (doa10∆): 3.12 ± 0.085
- protein stability index (pdr5∆): 3.19 ± 0.072
- protein stability index (san1∆): 3.25 ± 0.071
- protein stability index (ubr1∆): 3.31 ± 0.06

Sequence: SIGEPATQMTLNTFHFA [RPO21]
- protein stability index (doa10∆): 2.63 ± 0.091
- protein stability index (pdr5∆): 3.04 ± 0.11
- protein stability index (san1∆): 3.04 ± 0.15
- protein stability index (ubr1∆): 2.75 ± 0.12

Sequence: SIKDTQNVGQGKLQRKE [BRN1]
- protein stability index (doa10∆): 1.96 ± 0.1
- protein stability index (pdr5∆): 2.56 ± 0.081
- protein stability index (san1∆): 1.94 ± 0.11
- protein stability index (ubr1∆): 2.7 ± 0.049

Sequence: SIKSKVVDHHVENELLQ [RRP42]
- protein stability index (doa10∆): 3.38 ± 0.13
- protein stability index (pdr5∆): 3.24 ± 0.2
- protein stability index (san1∆): 2.82 ± 0.17

Sequence: SIQMEFMLRKQDPKTLV [SSN2]
- protein stability index (doa10∆): 1.73 ± 0.066
- protein stability index (pdr5∆): 2 ± 0.049
- protein stability index (san1∆): 1.82 ± 0.08
- protein stability index (ubr1∆): 2.05 ± 0.045

Sequence: SIREDILECDLLICIGT [SIR2]
- protein stability index (doa10∆): 2.45 ± 0.058
- protein stability index (pdr5∆): 2.15 ± 0.058
- protein stability index (san1∆): 2.78 ± 0.055
- protein stability index (ubr1∆): 2.39 ± 0.052

Sequence: SIREQVHMYHKSLALLG [SNF5]
- protein stability index (doa10∆): 1.81 ± 0.041
- protein stability index (pdr5∆): 1.74 ± 0.041
- protein stability index (san1∆): 2.37 ± 0.095
- protein stability index (ubr1∆): 2.06 ± 0.045

Sequence: SIWGNGYSGYGNGITNT [SNF5]
- protein stability index (doa10∆): 3.26 ± 0.1
- protein stability index (pdr5∆): 3.4 ± 0.12
- protein stability index (san1∆): 3.35 ± 0.084
- protein stability index (ubr1∆): 3.34 ± 0.051

Sequence: SKFYNMKQPYVFVKKHH [SSN2]
- protein stability index (doa10∆): 1.58 ± 0.11
- protein stability index (pdr5∆): 1.5 ± 0.11
- protein stability index (san1∆): 1.24 ± 0.14
- protein stability index (ubr1∆): 1.28 ± 0.044

Sequence: SKGFVFNSVQKKSRSNL [YAR002W/NUP60]
- protein stability index (doa10∆): 3.03 ± 0.2
- protein stability index (san1∆): 2.96 ± 0.17

Sequence: SKHNERNKSAANNDINS [YDL088C/ASM4]
- protein stability index (pdr5∆): 3.21 ± 0.12
- protein stability index (ubr1∆): 2.85 ± 0.12

Sequence: SKISFIDEDKLYPSFKP [SSN2]
- protein stability index (doa10∆): 2.96 ± 0.14
- protein stability index (pdr5∆): 2.8 ± 0.12
- protein stability index (san1∆): 2.25 ± 0.087
- protein stability index (ubr1∆): 2.54 ± 0.081

Sequence: SKKLNLKIHQSHLVVPY [YMR129W/POM152]
- protein stability index (doa10∆): 2.32 ± 0.15
- protein stability index (pdr5∆): 1.95 ± 0.086
- protein stability index (ubr1∆): 2.88 ± 0.14

Sequence: SKKNRPTLQVGDLVYAR [RRP40]
- protein stability index (doa10∆): 2.36 ± 0.1
- protein stability index (pdr5∆): 2.48 ± 0.09
- protein stability index (san1∆): 1.87 ± 0.12
- protein stability index (ubr1∆): 2.46 ± 0.043

Sequence: SKKQRNNGSKDHGDGIL [RPN9]
- protein stability index (doa10∆): 3.37 ± 0.13
- protein stability index (pdr5∆): 2.85 ± 0.097
- protein stability index (san1∆): 3.27 ± 0.057
- protein stability index (ubr1∆): 2.78 ± 0.053

Sequence: SKKTGQFNAQGVRDINC [POP1]
- protein stability index (san1∆): 3.16 ± 0.12

Sequence: SKKTSPKATSSAGAVFK [YOR098C/NUP1]
- protein stability index (doa10∆): 2.7 ± 0.12
- protein stability index (pdr5∆): 2.42 ± 0.086
- protein stability index (san1∆): 2.54 ± 0.085
- protein stability index (ubr1∆): 2.61 ± 0.046

Sequence: SKLGKNLQTVHFGHCFN [GRR1]
- protein stability index (doa10∆): 1.42 ± 0.092
- protein stability index (san1∆): 2.68 ± 0.11
- protein stability index (ubr1∆): 2.25 ± 0.11

Sequence: SKNAQFICTTFRTDMLQ [SMC3]
- protein stability index (doa10∆): 2.11 ± 0.074
- protein stability index (pdr5∆): 1.49 ± 0.075
- protein stability index (san1∆): 1.5 ± 0.13
- protein stability index (ubr1∆): 1.05 ± 0.073

Sequence: SKPVLIVGQKNLNRAFN [DIS3]
- protein stability index (doa10∆): 3.08 ± 0.11
- protein stability index (pdr5∆): 2.8 ± 0.1
- protein stability index (san1∆): 2.77 ± 0.055
- protein stability index (ubr1∆): 2.8 ± 0.088

Sequence: SKQDLIHSLIPVAKWFV [SIN4]
- protein stability index (doa10∆): 2.4 ± 0.076
- protein stability index (pdr5∆): 2.99 ± 0.054
- protein stability index (san1∆): 2.9 ± 0.061
- protein stability index (ubr1∆): 2.78 ± 0.08

Sequence: SKQQAKGAFQKVAATSR [RPL24A]
- protein stability index (doa10∆): 2.52 ± 0.043
- protein stability index (pdr5∆): 2.99 ± 0.045
- protein stability index (san1∆): 2.84 ± 0.036
- protein stability index (ubr1∆): 2.8 ± 0.038

Sequence: SKRWAQRTLSKSFYSTA [CYT1]
- protein stability index (doa10∆): 1.69 ± 0.052
- protein stability index (pdr5∆): 2.32 ± 0.054
- protein stability index (san1∆): 2.19 ± 0.063
- protein stability index (ubr1∆): 2.22 ± 0.06

Sequence: SKRYIPSVNDFVIGVII [RRP40]
- protein stability index (doa10∆): 2.4 ± 0.054
- protein stability index (pdr5∆): 2.66 ± 0.056
- protein stability index (san1∆): 2.17 ± 0.078
- protein stability index (ubr1∆): 2.73 ± 0.054

Sequence: SKSNLIHNYDSKKSTIT [RGR1]
- protein stability index (doa10∆): 3.03 ± 0.067
- protein stability index (pdr5∆): 3.03 ± 0.054
- protein stability index (san1∆): 3.05 ± 0.04
- protein stability index (ubr1∆): 3.11 ± 0.038

Sequence: SKSVPTPSLPIAPPVAP [SNF5]
- protein stability index (doa10∆): 2.74 ± 0.057
- protein stability index (pdr5∆): 2.81 ± 0.061
- protein stability index (san1∆): 3.1 ± 0.045
- protein stability index (ubr1∆): 2.55 ± 0.061

Sequence: SLAKSSALWSSRKGIAF [ECM29]
- protein stability index (doa10∆): 1.9 ± 0.069
- protein stability index (pdr5∆): 1.88 ± 0.14
- protein stability index (san1∆): 1.83 ± 0.12
- protein stability index (ubr1∆): 1.59 ± 0.15

Sequence: SLASCLRSTEYSKSFEQ [POP1]
- protein stability index (doa10∆): 2.58 ± 0.11
- protein stability index (pdr5∆): 2.88 ± 0.13
- protein stability index (san1∆): 2.89 ± 0.083
- protein stability index (ubr1∆): 2.76 ± 0.12

Sequence: SLDDNSTSLEKQINSIK [YJL041W/NSP1]
- protein stability index (doa10∆): 2.78 ± 0.079
- protein stability index (pdr5∆): 3.08 ± 0.065
- protein stability index (san1∆): 2.97 ± 0.045
- protein stability index (ubr1∆): 2.96 ± 0.048

Sequence: SLDEILLPANLLSLNSV [SRP68]
- protein stability index (doa10∆): 3.13 ± 0.058
- protein stability index (pdr5∆): 3.15 ± 0.058
- protein stability index (san1∆): 3.14 ± 0.05
- protein stability index (ubr1∆): 3.08 ± 0.031

Sequence: SLDLNNLELGGLNMDFL [PGD1]
- protein stability index (doa10∆): 3.24 ± 0.098
- protein stability index (pdr5∆): 3.19 ± 0.099
- protein stability index (san1∆): 3.37 ± 0.082
- protein stability index (ubr1∆): 2.74 ± 0.11

Sequence: SLELQSFQKIPLSRINE [YML103C/NUP188]
- protein stability index (doa10∆): 2.67 ± 0.12
- protein stability index (pdr5∆): 2.82 ± 0.11
- protein stability index (san1∆): 2.94 ± 0.07
- protein stability index (ubr1∆): 2.88 ± 0.12

Sequence: SLFELIVPIFQLISAVL [YJL039C/NUP192]
- protein stability index (doa10∆): 1.86 ± 0.068
- protein stability index (pdr5∆): 1.75 ± 0.051
- protein stability index (san1∆): 1.7 ± 0.097
- protein stability index (ubr1∆): 1.85 ± 0.037

Sequence: SLILKESGSTPISISNA [YAR002W/NUP60]
- protein stability index (doa10∆): 1.2 ± 0.085
- protein stability index (pdr5∆): 1.62 ± 0.1
- protein stability index (san1∆): 1.45 ± 0.11
- protein stability index (ubr1∆): 1.23 ± 0.1

Sequence: SLKNTDALLNSTTEHIN [YJL039C/NUP192]
- protein stability index (doa10∆): 1.9 ± 0.15
- protein stability index (pdr5∆): 2.49 ± 0.094
- protein stability index (san1∆): 2.13 ± 0.12
- protein stability index (ubr1∆): 2.42 ± 0.16

Sequence: SLLDAEEERRKKRESGV [SNF2]
- protein stability index (doa10∆): 3.47 ± 0.08
- protein stability index (pdr5∆): 3.32 ± 0.1
- protein stability index (ubr1∆): 3.47 ± 0.047

Sequence: SLLGGFDENIARDIISH [PCI8]
- protein stability index (doa10∆): 2.83 ± 0.058
- protein stability index (pdr5∆): 2.83 ± 0.048
- protein stability index (san1∆): 2.71 ± 0.044
- protein stability index (ubr1∆): 2.82 ± 0.046

Sequence: SLLLSSVKESTGMSSMS [SRB4]
- protein stability index (doa10∆): 1.96 ± 0.081
- protein stability index (pdr5∆): 2.21 ± 0.078
- protein stability index (san1∆): 1.57 ± 0.21
- protein stability index (ubr1∆): 1.22 ± 0.13

Sequence: SLQDRSSLVRRNSVKLL [YCS4]
- protein stability index (doa10∆): 2.02 ± 0.055
- protein stability index (pdr5∆): 2.12 ± 0.049
- protein stability index (san1∆): 1.94 ± 0.062
- protein stability index (ubr1∆): 1.56 ± 0.027

Sequence: SLQRSKSSFVKESAVIS [SMC1]
- protein stability index (doa10∆): 2.04 ± 0.11
- protein stability index (pdr5∆): 2.27 ± 0.047
- protein stability index (san1∆): 2.17 ± 0.067
- protein stability index (ubr1∆): 2.29 ± 0.039

Sequence: SLQYINIRGNTIRQIIL [SMD1]
- protein stability index (doa10∆): 3.15 ± 0.097
- protein stability index (pdr5∆): 3.26 ± 0.085
- protein stability index (san1∆): 2.73 ± 0.1
- protein stability index (ubr1∆): 2.94 ± 0.065

Sequence: SLRILAKLSERSNGSVA [YJL039C/NUP192]
- protein stability index (doa10∆): 2.5 ± 0.048
- protein stability index (pdr5∆): 2.27 ± 0.04
- protein stability index (san1∆): 1.93 ± 0.067
- protein stability index (ubr1∆): 2.42 ± 0.043

Sequence: SLSDEVMRNEIRITSLQ [SIR4]
- protein stability index (doa10∆): 2.92 ± 0.065
- protein stability index (pdr5∆): 2.48 ± 0.064
- protein stability index (san1∆): 2.81 ± 0.067
- protein stability index (ubr1∆): 2.52 ± 0.077

Sequence: SLSKISQAFDIVAALPI [RPP1]
- protein stability index (doa10∆): 3.18 ± 0.12
- protein stability index (pdr5∆): 3.46 ± 0.15
- protein stability index (san1∆): 2.97 ± 0.13
